The values that follow come from patent US20220403048A1 (CANCER RESEARCH TECHNOLOGY, published 2022).

For assay [1], the target named is T1, biotinylated recombinant human trimeric ARG1 enzyme (Avi-huARG1-His10) (human, UniProt P05089 1-322, biotinylated in HTRF and streptavidin BLI assays).
T1 construct: also called Human ARG1; recombinant ARG1
T1 sequence: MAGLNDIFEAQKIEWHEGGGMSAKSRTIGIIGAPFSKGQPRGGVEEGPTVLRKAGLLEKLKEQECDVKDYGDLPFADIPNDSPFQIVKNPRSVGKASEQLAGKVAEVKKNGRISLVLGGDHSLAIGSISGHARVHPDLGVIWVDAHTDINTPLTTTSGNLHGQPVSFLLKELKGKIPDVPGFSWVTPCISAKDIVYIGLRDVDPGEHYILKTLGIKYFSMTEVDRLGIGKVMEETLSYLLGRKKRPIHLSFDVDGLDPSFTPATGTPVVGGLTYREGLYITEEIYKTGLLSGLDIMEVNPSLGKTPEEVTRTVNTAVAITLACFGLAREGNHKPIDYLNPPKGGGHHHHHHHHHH
The experiment in a line: HTRF direct binding assay, biotinylated recombinant human trimeric ARG1.

Assay [2] has as its target T2, biotinylated recombinant human trimeric ARG2 enzyme (Avi-huARG2-His10) (human, UniProt P78540 23-354, biotinylated).
T2 construct: also called avi-Arg2-His10; bio-ARG2
T2 chain: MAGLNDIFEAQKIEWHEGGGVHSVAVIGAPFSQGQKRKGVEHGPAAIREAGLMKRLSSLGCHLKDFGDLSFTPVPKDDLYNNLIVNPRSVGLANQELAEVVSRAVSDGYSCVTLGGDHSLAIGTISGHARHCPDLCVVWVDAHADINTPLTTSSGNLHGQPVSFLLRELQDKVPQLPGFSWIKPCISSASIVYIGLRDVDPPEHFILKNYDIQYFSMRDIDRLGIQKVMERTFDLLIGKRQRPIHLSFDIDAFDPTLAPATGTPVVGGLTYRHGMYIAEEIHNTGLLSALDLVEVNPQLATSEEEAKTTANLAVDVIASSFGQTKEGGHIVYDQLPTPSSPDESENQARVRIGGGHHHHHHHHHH
The experiment in a line: HTRF epitope competition, scFv titrated, competitor C0020187 IgG, on biotinylated human trimeric ARG2.

Assay [3] deals with T3, biotinylated recombinant cynomolgus monkey trimeric ARG2 enzyme (Avi-cynoARG2-His10) (cynomolgus monkey, UniProt P78540 23-354 (human entry), biotinylated).
T3 construct: also called cynomolgus ARG2
T3 chain: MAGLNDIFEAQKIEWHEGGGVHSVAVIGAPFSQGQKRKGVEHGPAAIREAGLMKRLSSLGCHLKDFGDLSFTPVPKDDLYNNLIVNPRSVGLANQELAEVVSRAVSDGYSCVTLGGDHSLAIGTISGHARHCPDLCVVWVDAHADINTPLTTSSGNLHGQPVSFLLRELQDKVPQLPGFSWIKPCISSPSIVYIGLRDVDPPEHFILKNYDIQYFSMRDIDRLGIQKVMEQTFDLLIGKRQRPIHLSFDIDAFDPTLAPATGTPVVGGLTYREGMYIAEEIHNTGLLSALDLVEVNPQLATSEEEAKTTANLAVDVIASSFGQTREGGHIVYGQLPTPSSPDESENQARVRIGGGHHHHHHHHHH
The experiment in a line: HTRF direct binding assay, biotinylated recombinant cynomolgus trimeric ARG2, streptavidin cryptate and anti-c-myc-XL665, Delta F %.

The target of assay [4] is T2, biotinylated recombinant human trimeric …. The experiment in a line: HTRF direct binding assay, biotinylated recombinant human trimeric ARG2, streptavidin cryptate and anti-c-myc-XL665, % Delta F. As to the method: In this assay, binding of unpurified scFv to recombinant human trimeric ARG2 enzyme was assessed by measuring the fluorescence resonance energy transfer (FRET) between the c-myc tagged scFv and the biotinylated enzyme using streptavidin cryptate and anti-c-myc-XL665 detection reagents (CisBio International, France; cat: 610SAKLB and 61 MYCXLB respectively). Selection outputs were screened as unpurified bacterial periplasmic extracts containing scFv, prepared in 200 mM tris buffer pH 7.4, 0.5 mM EDTA and 0.5 M sucrose. 5 μl of unpurified scFv samples were added to a Greiner® 384 well assay plate (Greiner Bio-one, UK; cat: 784076). This was followed by the addition of 5 μl of 12 nM recombinant human trimeric ARG2 enzyme, 5 μl of 6.67 nM streptavidin cryptate and 5 μl 40 nM anti-c-myc-XL665. […] Assay plates were incubated overnight at 4° C. prior to reading time resolved fluorescence on a Pherastar plate reader ([…]) using an excitation wavelength of 320 nm and measuring the emission at 620 nm and 665 nm (100 flashes).
The ARG2 binding profile of each purified scFv was determined by testing a dilution series of the purified scFv in the HTRF™ assay described in section 1.4, substituting the unpurified scFv periplasmic preparation with the purified scFv. […]

In assay [5] the target is T4, recombinant human trimeric ARG2 enzyme (construct not given) (human, UniProt P78540 23-354).
T4 sequence (looked up): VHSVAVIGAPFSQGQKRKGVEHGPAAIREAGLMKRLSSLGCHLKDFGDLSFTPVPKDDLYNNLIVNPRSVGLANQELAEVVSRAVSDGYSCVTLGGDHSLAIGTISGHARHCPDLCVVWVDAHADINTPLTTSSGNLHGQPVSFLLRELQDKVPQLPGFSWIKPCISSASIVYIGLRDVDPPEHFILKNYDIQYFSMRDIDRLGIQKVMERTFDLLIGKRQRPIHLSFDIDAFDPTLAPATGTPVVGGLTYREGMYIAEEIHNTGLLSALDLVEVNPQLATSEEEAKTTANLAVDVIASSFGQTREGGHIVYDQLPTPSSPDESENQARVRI
The experiment in a line: cell-based or functional assay.

The target of assay [6] is T3, biotinylated recombinant cynomolgus …. The experiment in a line: BLI (OctetRED), biotinylated ARG on streptavidin tip, Fab as analyte, 1:1 fit. As to the method:
(§1) An Octet Kinetics Buffer (PBS containing 0.01% BSA and 0.002% Tween20) is typically used as the diluent buffer for the analyte samples and as the flow buffer during the dissociation phase. The experimental data is recorded over time as shift in interference pattern (nm) over time, which is directly proportional to the optical thickness at the biosensor tip, which in turn is an approximate measure of the mass of analyte bound. The proprietary Octet Data Analysis software package can then be used to process data and fit binding models to the data sets. Returned association (kₐ, M⁻¹ s⁻¹) and dissociation (kd, s⁻¹) rate constants allow calculation of dissociation (KD, M) affinity constants.
(§2) The affinity of binding between the Fab of C0020187 and human ARG2, cynomolgus ARG2 and human ARG1 was estimated using assays in which the biotinylated ARG antigen was captured on a streptavidin sensor tip. A fresh sensor tip was used for each measurement and no regeneration was used. A series of dilutions of the C0020187 Fab (3.25-240 nM) were individually placed in contact with the ligand surface for a sufficient amount of time to observe sensorgrams that could be fitted to an appropriate binding model with confidence (typically 5 minutes), followed by an appropriate length of dissociation time (typically 10 minutes). Blank reference (0 nM Fab) data were subtracted from each dataset to reduce the impact of any buffer artefacts or non-specific binding effects. An appropriate binding model was then fitted simultaneously to the data from each analyte titration using the Octet Evaluation software.
(§3) Example results for C0020187 are shown in Table 9, showing the association rate constants (kₐ), dissociation rate constants (kd) and dissociation constants (KD). These parameters were derived from a 1:1 binding fit to the data.

Assay [7] deals with T2, biotinylated recombinant human trimeric …. The description is as above. As to the method:
as §1, §2, §3

The target of assay [8] is T1, biotinylated recombinant human trimeric …. The experiment in a line: BLI (OctetRED), biotinylated ARG1 on streptavidin tip. The protocol:
as §2

B1: C0020187 scFv (scFv, V domains shown)
VH: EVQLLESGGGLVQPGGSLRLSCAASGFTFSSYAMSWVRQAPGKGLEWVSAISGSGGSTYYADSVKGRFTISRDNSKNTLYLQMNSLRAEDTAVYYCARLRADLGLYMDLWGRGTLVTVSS
VL: QSVLTQPPSVSAAPGQKVTISCSGSSSNIGNHYVSWYQQLPGTAPKLLIYDNSERPSGIPDRFSGSKSGTSATLGITGLQTGDEADYYCGTWDSSLSALVFGGGTKLTVL
notes: c-myc tagged scFv; also called parent C0020187 scFv
B1: the binding result in assay [1] is “no binding (tested: log M -6 (1e-6 M))”. The IC50 in assay [2] turned out to be 1.58 µM. Moreover, the “EC50 (read off the curve)” value was approximately 0.01 µM in assay [3] and approximately 0.02 µM in assay [4]. Besides, in assay [5], the “Trimeric human ARG2 EIA IC50” value amounted to 0.964 µM.

B2: C0020187 Fab (Fab, V domains shown)
VH: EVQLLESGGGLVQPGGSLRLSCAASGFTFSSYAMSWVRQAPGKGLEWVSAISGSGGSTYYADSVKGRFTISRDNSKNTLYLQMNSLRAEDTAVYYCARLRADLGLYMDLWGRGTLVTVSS
VL: QSVLTQPPSVSAAPGQKVTISCSGSSSNIGNHYVSWYQQLPGTAPKLLIYDNSERPSGIPDRFSGSKSGTSATLGITGLQTGDEADYYCGTWDSSLSALVFGGGTKLTVL
notes: Human Fab (CH1 and part of the hinge; light chain constant domain); also called Fab of C0020187
As for B2, in assay [6], the Kd was found to be 0.00626 µM, the koff stood at 0.000631 s⁻¹ and the kon came out at 101000 M⁻¹ s⁻¹. Besides, in assay [7], the Kd was determined as 0.00835 µM, the dissociation rate constant (koff) came to 0.000577 s⁻¹ and the on-rate (kon) was 69200 M⁻¹ s⁻¹. Moreover, the binding result in assay [8] is recorded as “no binding (tested: 3.25-240 nM Fab)”.
